{"source": "IntAct's records for PubMed 22921828", "parents": {"B1": {"name": "\"Secreted effector protein EspF(U)\" (Escherichia coli O157:H7), P0DJ88 (parent)", "chain": "MINNVSSLFPTVNRNITAVYKKSSFSVSPQKITLNPVKISSPFSPSSSSISATTLFRAPNAHSASFHRQSTAESSLHQQLPNVRQRLIQHLAEHGIKPARSMAEHIPPAPNWPAPPPPVQNEQSRPLPDVAQRLVQHLAEHGIQPARNMAEHIPPAPNWPAPPLPVQNEQSRPLPDVAQRLVQHLAEHGIQPARSMAEHIPPAPNWPAPPPPVQNEQSRPLPDVAQRLMQHLAEHGIQPARNMAEHIPPAPNWPAPTPPVQNEQSRPLPDVAQRLMQHLAEHGIQPARNMAEHIPPAPNWPAPTPPVQNEQSRPLPDVAQRLMQHLAEHGINTSKRS", "partner": "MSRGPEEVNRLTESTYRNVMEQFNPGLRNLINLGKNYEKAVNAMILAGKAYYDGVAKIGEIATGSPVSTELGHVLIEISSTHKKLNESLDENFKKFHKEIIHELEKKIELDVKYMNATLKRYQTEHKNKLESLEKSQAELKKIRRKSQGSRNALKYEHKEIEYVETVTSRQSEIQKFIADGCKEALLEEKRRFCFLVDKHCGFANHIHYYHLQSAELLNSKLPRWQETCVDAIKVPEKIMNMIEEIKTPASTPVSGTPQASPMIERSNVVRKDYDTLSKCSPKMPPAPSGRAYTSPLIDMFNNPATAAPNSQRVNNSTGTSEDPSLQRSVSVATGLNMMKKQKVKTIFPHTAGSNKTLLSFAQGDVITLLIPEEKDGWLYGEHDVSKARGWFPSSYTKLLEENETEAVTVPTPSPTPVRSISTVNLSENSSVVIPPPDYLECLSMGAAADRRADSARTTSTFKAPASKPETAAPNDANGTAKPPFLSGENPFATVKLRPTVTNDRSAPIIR"}, "B2": {"name": "Epidermal growth factor receptor kinase substrate 8 (Homo sapiens), Q12929 (parent)", "chain": "MNGHISNHPSSFGMYPSQMNGYGSSPTFSQTDREHGSKTSAKALYEQRKNYARDSVSSVSDISQYRVEHLTTFVLDRKDAMITVDDGIRKLKLLDAKGKVWTQDMILQVDDRAVSLIDLESKNELENFPLNTIQHCQAVMHSCSYDSVLALVCKEPTQNKPDLHLFQCDEVKANLISEDIESAISDSKGGKQKRRPDALRMISNADPSIPPPPRAPAPAPPGTVTQVDVRSRVAAWSAWAADQGDFEKPRQYHEQEETPEMMAARIDRDVQILNHILDDIEFFITKLQKAAEAFSELSKRKKNKKGKRKGPGEGVLTLRAKPPPPDEFLDCFQKFKHGFNLLAKLKSHIQNPSAADLVHFLFTPLNMVVQATGGPELASSVLSPLLNKDTIDFLNYTVNGDERQLWMSLGGTWMKARAEWPKEQFIPPYVPRFRNGWEPPMLNFMGATMEQDLYQLAESVANVAEHQRKQEIKRLSTEHSSVSEYHPADGYAFSSNIYTRGSHLDQGEAAVAFKPTSNRHIDRNYEPLKTQPKKYAKSKYDFVARNNSELSVLKDDILEILDDRKQWWKVRNASGDSGFVPNNILDIVRPPESGLGRADPPYTHTIQKQRMEYGPRPADTPPAPSPPPTPAPVPVPLPPSTPAPVPVSKVPANITRQNSSSSDSGGSIVRDSQRHKQLPVDRRKSQMEEVQDELIHRLTIGRSAAQKKFHVPRQNVPVINITYDSTPEDVKTWLQSKGFNPVTVNSLGVLNGAQLFSLNKDELRTVCPEGARVYSQITVQKAALEDSSGSSELQEIMRRRQEKISAAASDSGVESFDEGSSH", "partner": "B1 partner"}}, "data": [{"variants_of": "B1", "settings": "with bi2l1_human BAIAP2L1, Q9UHR4", "values": [{"variant": "W300A", "effect of a mutation on the interaction": "decreasing interaction strength"}]}, {"variants_of": "B1", "settings": "with bi2l1_human BAIAP2L1, Q9UHR4", "remark": "another data set of the same source", "values": [{"variant": "W300A", "effect of a mutation on the interaction": "disrupting interaction strength"}]}, {"variants_of": "B2", "settings": "with bi2l1_human BAIAP2L1, Q9UHR4", "values": [{"variant": "A215W", "effect of a mutation on the interaction": "increasing interaction strength"}]}]}
